Measured values reported in patent publication US20250368745A1 (published 2025).
Like-named read-outs stand apart in the source and are kept apart here.

T1: human IL-18BP (interleukin-18 binding protein, isoform A) (human, UniProt O95998 31-194)
T1 sequence: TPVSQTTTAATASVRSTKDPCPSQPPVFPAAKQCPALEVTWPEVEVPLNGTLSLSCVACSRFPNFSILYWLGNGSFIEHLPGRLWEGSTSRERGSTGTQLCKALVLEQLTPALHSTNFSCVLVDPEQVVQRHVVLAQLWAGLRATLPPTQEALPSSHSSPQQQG

T2: cynomolgus IL-18BP (cynomolgus monkey)
T2 construct: Generated in-house; also called cyIL-18BP; cyno IL-18BP
T2 chain: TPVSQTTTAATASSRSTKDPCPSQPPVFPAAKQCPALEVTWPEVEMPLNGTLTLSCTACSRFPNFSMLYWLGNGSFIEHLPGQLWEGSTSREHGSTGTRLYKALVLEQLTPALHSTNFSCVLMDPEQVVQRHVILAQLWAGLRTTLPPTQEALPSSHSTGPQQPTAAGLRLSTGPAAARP


Key:
[1] = molecular target: hypo-IL-18 (IL-18 tethered to IL-18BP by a flexible linker with TEV site, 6xHis) (human); assay: BLI
[2] = molecular target: T1, human IL-18BP (interleukin-18 binding …); assay: cell-based or functional assay
[3] = molecular target: T1, human IL-18BP (interleukin-18 binding …); assay: cell-based or functional assay; remark: listed apart in the source
[4] = molecular target: T1, human IL-18BP (interleukin-18 binding …); assay: BLI (Octet), mAb on AHC biosensor
cynomolgus IL-18BP [5] = molecular target: T2, cynomolgus IL-18BP; assay: BLI (Octet), mAb on AHC biosensor
[6] = molecular target: T1, human IL-18BP (interleukin-18 binding …); assay: cell-based or functional assay; remark: listed apart in the source
[7] = molecular target: T1, human IL-18BP (interleukin-18 binding …); assay: BLI, affinity column of Table E8
[8] = molecular target: T1, human IL-18BP (interleukin-18 binding …); assay: BLI (Octet), mAb on AHC biosensor; remark: listed apart in the source
cynomolgus IL-18BP [9] = molecular target: T2, cynomolgus IL-18BP; assay: BLI (Octet), mAb on AHC biosensor
cynomolgus IL-18BP [10] = molecular target: T2, cynomolgus IL-18BP; assay: ratio of BLI KDs, cyno against human IL-18BP

Chain of hypo-IL-18 (IL-18 tethered to IL-18BP by a flexible linker with TEV site, 6xHis) (human) (chain, as listed by the source limits assumed): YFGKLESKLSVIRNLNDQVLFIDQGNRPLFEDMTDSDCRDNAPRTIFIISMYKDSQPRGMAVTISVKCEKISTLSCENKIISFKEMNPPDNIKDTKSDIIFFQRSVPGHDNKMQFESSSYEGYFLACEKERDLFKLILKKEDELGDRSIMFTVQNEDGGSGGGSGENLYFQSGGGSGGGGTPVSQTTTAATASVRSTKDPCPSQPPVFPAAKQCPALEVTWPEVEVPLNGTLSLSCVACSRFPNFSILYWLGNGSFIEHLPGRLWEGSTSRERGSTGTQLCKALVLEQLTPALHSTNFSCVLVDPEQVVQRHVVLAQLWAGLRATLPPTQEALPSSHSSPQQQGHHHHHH

Binder	binding result [1]	EC50 (nM), HEK293 IL-18 Reporter Assay (SEAP) [2] [nM]	EC50 (nM), KG-1 Assay (IFNγ) [3] [nM]	Kd [4] [nM]	Kd (cynomolgus IL-18BP [5]) [nM]	EC50 in PBMC Assay 1 (endogenous IL-18BP), IFNγ [6] [nM]	EC50 in PBMC Assay 2 (precomplexed IL-18BP), IFNγ [6] [nM]	Kd [7] [nM]	Kd [8] [nM]	Kd (cynomolgus IL-18BP [9]) [nM]	Cyno/human (cynomolgus IL-18BP [10]) [ratio]
SA33a (antibody, human IgG1, V domains shown, murine variable regions on human IgG1 kappa constant regions) VH: QVQLQQSGAELVRPGVSVKISCKGSGYTFTDYAMHWVKQSHAKSLEWIGVISTYYGDASYNQKFKGKATMTVDKSSSTAYMELARLTSEDSAIYYCARERDYYGSRLFDYWGQGTTLTVSS VL: EIVLTQSPTTMAASPGEKITITCSANSSISSNYLHWYQQKPGFSPKLLIYGTSNLASGVPARFSGSGSGTSYSLTIGTMEAEDVATYYCQQGSSIPYTFGGGTKLEIK	no binding	0.36	129	3	16	–	–	–	–	–	–
SA35a (antibody, human IgG1, V domains shown, murine variable regions on human IgG1 kappa constant regions) VH: QVQLQQSGAELVRPGVSVKISCKGSGYTFTDYPMHWVKQSHAKSLEWIGVISTYYGDASYNQKFKGKATMTVDKSSSTAYMELARLTSEDSAIYYCARWRGSFDYWGQGTTLTVSS VL: ENVLTQSPAIMSASPGEKVTMTCRASSSVSSSYLHWYQQKSGASPKLWIYSTSNLASGVPARFSGSGSGTSYSLTISSVEAEDAATYYCQQYSGYHTFGGGTKLEIK	no binding	21	103	11	13	–	–	–	–	–	–
SA302a (antibody, human IgG1, V domains shown, humanized; human IgG1 (suffix a), kappa) VH: QVQLQESGPGLVKPSQTLSLTCTVSGYSITSDYNAHWIRQPPGKGLEWIGYIHYSGSTNYNPSLKSRVTISRDTSKNQFSLKLSSVTAADTAVYYCARNYGSIYVNYFDYWGQGTLVTVSS VL: EIVLTQSPATLSLSPGERATLSCSASSSVSYMYWYQQKPGQAPRPLIYRTSNLASGIPARFSGSGSGTDFTLTISSLEPEDFAVYYCQQYHSYPTFGGGTKVEIK	–	–	–	–	–	15	2.15	0.345	0.345	0.156	0.45
SA322a (antibody, human IgG1, V domains shown, humanized; human IgG1 (suffix a), kappa) VH: QVQLQESGPGLVKPSQTLSLTCTVSGYSITQDYNAHWIRQPPGKGLEWIGYIHYSGQTNYNPSLKSRVTISRDTSKNQFSLKLSSVTAADTAVYYCARNYGSIYVNYFDYWGQGTLVTVSS VL: EIVLTQSPATLSLSPGERATLSCSASSSVSYMYWYQQKPGQAPRPLIYRTSNLASGIPARFSGSGSGTDFTLTISSLEPEDFAVYYCQQYHSYPTFGGGTKVEIK	–	–	–	–	–	0.8	0.53	0.054	0.054	0.02	0.37
SA307a (antibody, human IgG1, V domains shown, humanized; human IgG1 (suffix a), kappa) VH: QVQLQESGPGLVKPSQTLSLTCTVSGYSITQDYNAHWIRQPPGKGLEWIGYIHYSGSTNYNPSLKSRVTISRDTSKNQFSLKLSSVTAADTAVYYCARNYGSIYVNYFDYWGQGTLVTVSS VL: EIVLTQSPATLSLSPGERATLSCSASSSVSYMYWYQQKPGQAPRPLIYRTSNLASGIPARFSGSGSGTDFTLTISSLEPEDFAVYYCQQYHSYPTFGGGTKVEIK	–	–	–	–	–	1.6	1.47	0.054	0.054	0.027	0.5
SA337a (antibody, human IgG1, V domains shown, humanized; human IgG1 (suffix a), kappa) VH: QVQLQESGPGLVKPSQTLSLTCTVSGYSITQDYNAHWIRQPPGKGLEWIGYIHYSGQTNYNPSLKSRVTISRDTSKNQFSLKLSSVTAADTAVYYCARNYGSIYVNYFDYWGQGTLVTVSS VL: EIVLTQSPATLSLSPGERATLSCSASSSVSYMYWYQQKPGQAPRPLIYRTSNLASGIPARFSGSGSGTDFTLTISSLEPEDFAVYYCQLYHSYPTFGGGTKVEIK	–	–	–	–	–	1	0.58	0.047	0.047	0.042	0.89
SA320a (antibody, human IgG1, V domains shown, humanized; human IgG1 (suffix a), kappa) VH: QVQLQESGPGLVKPSQTLSLTCTVSGYSITQDYNAHWIRQPPGKGLEWIGYIHYSGQTYYNPSLKSRVTISRDTSKNQFSLKLSSVTAADTAVYYCARNFGSIYVNYFDYWGQGTLVTVSS VL: EIVLTQSPATLSLSPGERATLSCSASSSVSYMYWYQQKPGQAPRPLIYRTSNLASGIPARFSGSGSGTDFTLTISSLEPEDFAVYYCQQYHSYPTFGGGTKVEIK	–	–	–	–	–	0.3	0.25	0.052	0.052	0.02	0.38
SA303a (antibody, human IgG1, V domains shown, humanized; human IgG1 (suffix a), kappa) VH: QVQLQESGPGLVKPSQTLSLTCTVSGYSITSDYNAHWIRQPPGKGLEWIGYIHYSGSTNYNPSLKSRVTISRDTSKNQFSLKLSSVTAADTAVYYCARNFGSIYVNYFDYWGQGTLVTVSS VL: EIVLTQSPATLSLSPGERATLSCSASSSVSYMYWYQQKPGQAPRPLIYRTSNLASGIPARFSGSGSGTDFTLTISSLEPEDFAVYYCQQYHSYPTFGGGTKVEIK	–	–	–	–	–	1.6	2.75	0.182	0.182	0.077	0.42
SA310a (antibody, human IgG1, V domains shown, humanized; human IgG1 (suffix a), kappa) VH: QVQLQESGPGLVKPSQTLSLTCTVSGYSITSDYNAHWIRQPPGKGLEWIGYIHYSGSTMYNPSLKSRVTISRDTSKNQFSLKLSSVTAADTAVYYCARNYGSIYVNYFDYWGQGTLVTVSS VL: EIVLTQSPATLSLSPGERATLSCSASSSVSYMYWYQQKPGQAPRPLIYRTSNLASGIPARFSGSGSGTDFTLTISSLEPEDFAVYYCQQYHSYPTFGGGTKVEIK	–	–	–	–	–	1.9	0.94	0.175	0.175	0.028	0.16
SA309a (antibody, human IgG1, V domains shown, humanized; human IgG1 (suffix a), kappa) VH: QVQLQESGPGLVKPSQTLSLTCTVSGYSITSDYNAHWIRQPPGKGLEWIGYIHYSGQTNYNPSLKSRVTISRDTSKNQFSLKLSSVTAADTAVYYCARNYGSIYVNYFDYWGQGTLVTVSS VL: EIVLTQSPATLSLSPGERATLSCSASSSVSYMYWYQQKPGQAPRPLIYRTSNLASGIPARFSGSGSGTDFTLTISSLEPEDFAVYYCQQYHSYPTFGGGTKVEIK	–	–	–	–	–	2.8	0.62	0.061	0.061	0.024	0.39
SA338a (antibody, human IgG1, V domains shown, humanized; human IgG1 (suffix a), kappa) VH: QVQLQESGPGLVKPSQTLSLTCTVSGYSITQDYNAHWIRQPPGKGLEWIGYIHYSGQTYYNPSLKSRVTISRDTSKNQFSLKLSSVTAADTAVYYCARNFGSIYVNYFDYWGQGTLVTVSS VL: EIVLTQSPATLSLSPGERATLSCSASSSVSYMYWYQQKPGQAPRPLIYRTSNLASGIPARFSGSGSGTDFTLTISSLEPEDFAVYYCQLYHSYPTFGGGTKVEIK	–	–	–	–	–	0.5	0.33	0.032	0.032	0.024	0.67
SA32a (antibody, human IgG1, V domains shown, murine variable regions on human IgG1 kappa constant regions) VH: EVQLQQSGPELVKTGASVKISCKASGYSFTGYYMHWVKQSHGKSLEWIGYISCYNGATSYNQKFKGKATFTVDTSSSTAYMQFNSLTSEDSAVYYCAITLHYAMDYWGQGTSVAS VL: DIVMTQAAFSNPVTLGTSASISCRSSKSLLHSNGITYLYWYLQKPGQSPQLLIYQMSNLASGVPDRFSSSGSGTDFTLRISRVEAEDVGVYYCAQNLELPWTFGGGTKLEIK	no binding	6.82	109	17	19	–	–	–	–	–	–
SA34a (antibody, human IgG1, V domains shown, murine variable regions on human IgG1 kappa constant regions) VH: QVQLQQSGAELARPGASVKLSCKASGYTFTDYYINWVKQRTGQGLEWIGEIYPGSGNTYYNEKFKGKATLTADKSSSTAYMQLSSLTSEDSAVYFCARGYYGRFAYWGQGTLVTVSA VL: DIVMTQAAFSNPVTLGTSASISCRSSKSLLHSNGITYLYWYLQKPGQSPQLLIYQMSNLASGVPDRFSSSGSGTDFTLRISRVEAEDVGVYYCDQNLELPFTFGSGTKLEIK	no binding	5.02	51	18	12	–	–	–	–	–	–
SA31a (antibody, human IgG1, V domains shown, murine variable regions on human IgG1 kappa constant regions) VH: QVQLQQPGSELVRPGASVKLSCKASGYTFTSYWMHWVKQRPGQGLEWIGNIYPGSGNTIYDEKFKSKATLTVDTSSSTAYMQLSSLTSEDSAVYYCTRWDNWEGYYFDYWGQGTTLTVSS VL: DIVMTQAAFSNPVTLGTSASISCRSSKSLLHSNGITYLYWYLQKPGQSPQLLIYQMSNLASGVPDRFSSSGSGTDFTLRISRVEAEDVGVYYCAQNLELPWTFGGGTKLEIK	no binding	2.62	185	3	5	–	–	–	–	–	–
